From article PMC6423285

Legend:
NBS1 = NBS1 (UniProt O60934); experiment: peptide-bead pull-down from cell lysate; settings: reference: non-phospho peptide …; sites S462
NBS1 FHA+BRCT1/2 = NBS1 FHA+BRCT1/2 (UniProt O60934); experiment: peptide-bead pull-down of purified GST fusion; settings: reference: non-phospho peptide …; sites S462

UFL1 (from UniProt O94874) pS462 peptide
binding against the reference (NBS1): stronger | binding against the reference (NBS1 FHA+BRCT1/2): stronger
